Source: US20230265179A1 (TWIST BIOSCIENCE, published 2023)

T1: IL1RL2 over-expressed on Expi293 cells (UniProt Q9HB29 20-575, limits assumed)
T1 construct: whole, on cells; Target of the flow cytometry assay; MFI ratio is over-expressing cells over parent cells
T1 sequence (looked up): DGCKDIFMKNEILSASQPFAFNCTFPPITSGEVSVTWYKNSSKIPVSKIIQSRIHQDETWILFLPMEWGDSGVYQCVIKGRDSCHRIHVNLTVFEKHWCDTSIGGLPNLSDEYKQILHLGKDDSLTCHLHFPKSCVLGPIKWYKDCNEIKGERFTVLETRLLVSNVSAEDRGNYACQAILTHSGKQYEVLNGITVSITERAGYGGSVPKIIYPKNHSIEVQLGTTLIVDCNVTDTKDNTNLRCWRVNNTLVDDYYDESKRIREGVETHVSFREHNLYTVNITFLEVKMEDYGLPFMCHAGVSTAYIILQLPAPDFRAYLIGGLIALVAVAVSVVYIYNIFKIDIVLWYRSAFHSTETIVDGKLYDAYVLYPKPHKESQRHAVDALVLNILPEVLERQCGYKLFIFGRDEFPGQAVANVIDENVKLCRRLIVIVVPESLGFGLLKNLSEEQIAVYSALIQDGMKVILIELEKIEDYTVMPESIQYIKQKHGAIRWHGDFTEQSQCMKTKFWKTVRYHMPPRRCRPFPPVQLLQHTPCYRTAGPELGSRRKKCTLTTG


Target: T1, IL1RL2 over-expressed on Expi293 cells
Assay: flow cytometry, over-expressing Expi293 vs parent cells, 100 nM antibody;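 note: ratio is mean fluorescence intensity on over-expressing Expi293 cells divided by that measured on parental Expi293 cells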
Protocol: All incubations and washes were in buffer containing PBS+1% BSA. MFI Ratio is defined by the mean fluorescence intensity (MFI) of the cytokine over-expressing Expi293 cell over the Expi293 parent cell. […] EC50 was calculated in GraphPad Prism.

100 nM FACS (MFI Ratio) | Binder
15.7 | IL1RL2-4 (VHH, VHH-Fc based on IgG2 Fc) VHH: EVQLVESGGGLVQPGGSLRLSCAASGFILREYNMGWFRQAPGKEREFVAAISPSAFTEYADSVKGRFTISADNSKNTAYLQMNSLKPEDTAVYYCAAANEYWVYVNPNRYTWGQGTLVTVSS
21.1 | IL1RL2-54 (VHH, VHH-Fc based on IgG2 Fc) VHH: EVQLVESGGGLVQPGGSLRLSCAASGRYFSDYNMGWFRQAPGKEREFVAAISPSAFTEYADSVKGRFTISADNSKNTAYLQMNSLKPEDTAVYYCAAANEYWVYVNPNRYTWGQGTLVTVSS
12.7 | IL1RL2-10 (VHH, VHH-Fc based on IgG2 Fc) VHH: EVQLVESGGGLVQPGGSLRLSCAASGFTFSNHIMGWFRQAPGKEREWVSGINRDGSTSYADSVKGRFTISADNSKNTAYLQMNSLKPEDTAVYYCAKARQITGWDFDYWGQGTLVTVSS
20.9 | IL1RL2-21 (VHH, VHH-Fc based on IgG2 Fc) VHH: EVQLVESGGGLVQPGGSLRLSCAASGRTFSRYAMGWFRQAPGKEREFVAAINWSGDRTYYADSVKGRFTISADNSKNTAYLQMNSLKPEDTAVYYCAVSQPLNYYTYYDARRYDWGQGTLVTVSS
16.9 | IL1RL2-37 (VHH, VHH-Fc based on IgG2 Fc) VHH: EVQLVESGGGLVQPGGSLRLSCAASGGAFSTVAMGWFRQAPGKEREFVAAISWSRGRTFYADSVKGRFTISADNSKNTAYLQMNSLKPEDTAVYYCAVSQPLNYYTYYDARRYDWGQGTLVTVSS
5.33 | IL1RL2-41 (VHH, VHH-Fc based on IgG2 Fc) VHH: EVQLVESGGGLVQPGGSLRLSCAASGGTFSRYAMGWFRQAPGKEREFVAAVNWSGARTYYADSVKGRFTISADNSKNTAYLQMNSLKPEDTAVYYCAVSQPLNYYTYYDARRYDWGQGTLVTVSS
14 | IL1RL2-36 (VHH, VHH-Fc based on IgG2 Fc) VHH: EVQLVESGGGLVQPGGSLRLSCAASGRTYNSYSMGWFRQAPGKEREFVAAISWSGEHTYYADSVKGRFTISADNSKNTAYLQMNSLKPEDTAVYYCAVSQPLNYYTYYDARRYDWGQGTLVTVSS
1.62 | IL1RL2-43 (VHH, VHH-Fc based on IgG2 Fc) VHH: EVQLVESGGGLVQPGGSLRLSCAASGGTFSRYAMGWFRQAPGKEREFVAAISWSGANTYYADSVKGRFTISADNSKNTAYLQMNSLKPEDTAVYYCAVSQPLNYYTYYDARRYDWGQGTLVTVSS
42.1 | IL1RL2-14 (VHH, VHH-Fc based on IgG2 Fc) VHH: EVQLVESGGGLVQPGGSLRLSCAASGFTFSNYWMGWFRQAPGKEREFVATIPWSGAYTEYADSVKGRFTISADNSKNTAYLQMNSLKPEDTAVYYCAAANEYWVYVNPNRYTWGQGTLVTVSS
15.3 | IL1RL2-39 (VHH, VHH-Fc based on IgG2 Fc) VHH: EVQLVESGGGLVQPGGSLRLSCAASGRAFSSTVMGWFRQAPGKEREFVAGIGWTDAYTEYADSVKGRFTISADNSKNTAYLQMNSLKPEDTAVYYCAAANEYWVYVNPNRYTWGQGTLVTVSS
16.5 | IL1RL2-25 (VHH, VHH-Fc based on IgG2 Fc) VHH: EVQLVESGGGLVQPGGSLRLSCAASGLPFNNVYMGWFRQAPGKEREFVAAVTWSGAYTEYADSVKGRFTISADNSKNTAYLQMNSLKPEDTAVYYCAAANEYWVYVNPNRYTWGQGTLVTVSS
12.8 | IL1RL2-8 (VHH, VHH-Fc based on IgG2 Fc) VHH: EVQLVESGGGLVQPGGSLRLSCAASGFTYSSNYMGWFRQAPGKEREFVAGISWTDAYTEYADSVKGRFTISADNSKNTAYLQMNSLKPEDTAVYYCAAANEYWVYVNPNRYTWGQGTLVTVSS
190 | IL1RL2-49 (VHH, VHH-Fc based on IgG2 Fc) VHH: EVQLVESGGGLVQPGGSLRLSCAASGFTFSTYWMGWFRQAPGKEREFVATIPWIGAHTEYADSVKGRFTISADNSKNTAYLQMNSLKPEDTAVYYCAEANEYWGYVNPNRYTWGPGTLVTVSH
